Measured values as given in patent US20250340636A1, “ANTIBODIES TARGETING L1CAM AND USES THEREOF” (MEMORIAL SLOAN-KETTERING CANCER CENTER, priority 2023, published 2025).

Tests used:
[1] = biological target: T1, HEK293FT cells transiently transfected with mouse L1CAM (Mus musculus, UniProt P11627); assay: Flow cytometry binding to HEK293FT cells transiently transfected with mouse L1CAM
T1 construct: expressed in transfected cells; host or cells: HEK293FT (transient)
Experimental: Hybridoma Screening. Binding to human L1CAM protein was tested by ELISA and to a HEK293T cell line overexpressing human L1CAM by flow cytometry. […] Cross-reactivity to cynomolgus L1CAM was not assessed at this point, as it is >99% homologous to human L1CAM. […] The antibodies were tested for binding to MDA-MB-231 cells, a breast cancer cell line that endogenously expresses L1CAM, followed by analysis of their internalization efficacy in MDA-MB-231 cells.
Binding Analysis. […] Dissociation constants (KD) for binding to soluble human and cynomolgus monkey L1CAM-His were determined using biolayer interferometry (BLI). In addition, EC50 values for binding to cell-bound L1CAM were established by flow cytometry using HEK293T/FT cells overexpressing human or mouse L1CAM, MCF-7 cells, and MDA-MB-231 cells. In addition, the epitope regions of the mAbs were determined by BLI interaction analysis with L1CAM subdomains (Ig and FN) expressed individually, and by a BLI competition experiment to identify epitope bins.
The binding curves for each antibody and cell line normalized to secondary antibody only staining (MFI ratio) are shown in FIGS. 14A-14C. EC50 values were determined by non-linear regression (Table 70). […] It is possible that differences in the conformation and oligomerization of L1CAM, depending on the surface expression level, contributed to the binding pattern. […]

[2] = biological target: T2, recombinant L1CAM-Fc fusion protein (Homo sapiens, UniProt P32004); assay: BLI binding of 76H12 Fabs to recombinant L1CAM-Fc; conditions: L1CAM-Fc on AHC biosensors, Fab 3-200 nM, 1:1 model
T2 construct: purchased R&D Systems; host or cells: mammalian cells
From the text: A total of 11 humanized 76H12 Fab variants (Fabs 2-12) were generated in addition to a chimeric 76H12 Fab (Fab 1) containing the parental murine VH and VL sequences. The chimeric Fab served as the benchmark for comparative assessment of humanized Fab variants. Humanized Fabs were first assessed by flow cytometry for binding to 293T cells engineered to overexpress L1CAM (FIG. 32A). All humanized variants bound to the L1CAM overexpressing cells, with most binding comparably to the chimeric 76H12 Fab. […] Here, recombinant L1CAM-Fc fusion protein was immobilized onto anti-Human IgG Fc Capture (AHC) biosensors and binding of Fabs was measured kinetically over a 3-200 nM concentration range. Kinetic data were fitted to a 1:1 binding model to compute association (kon) and dissociation (koff) rate constants, in addition to equilibrium dissociation constants (KD) as shown in Table 87. […] From these, Fab 3 represents the preferred humanized variant given higher identity to human germline IGHV1-46 and IGKV1-39 sequences resulting from fewer human-to-murine framework back mutations.

T2 sequence (P32004 20-1120): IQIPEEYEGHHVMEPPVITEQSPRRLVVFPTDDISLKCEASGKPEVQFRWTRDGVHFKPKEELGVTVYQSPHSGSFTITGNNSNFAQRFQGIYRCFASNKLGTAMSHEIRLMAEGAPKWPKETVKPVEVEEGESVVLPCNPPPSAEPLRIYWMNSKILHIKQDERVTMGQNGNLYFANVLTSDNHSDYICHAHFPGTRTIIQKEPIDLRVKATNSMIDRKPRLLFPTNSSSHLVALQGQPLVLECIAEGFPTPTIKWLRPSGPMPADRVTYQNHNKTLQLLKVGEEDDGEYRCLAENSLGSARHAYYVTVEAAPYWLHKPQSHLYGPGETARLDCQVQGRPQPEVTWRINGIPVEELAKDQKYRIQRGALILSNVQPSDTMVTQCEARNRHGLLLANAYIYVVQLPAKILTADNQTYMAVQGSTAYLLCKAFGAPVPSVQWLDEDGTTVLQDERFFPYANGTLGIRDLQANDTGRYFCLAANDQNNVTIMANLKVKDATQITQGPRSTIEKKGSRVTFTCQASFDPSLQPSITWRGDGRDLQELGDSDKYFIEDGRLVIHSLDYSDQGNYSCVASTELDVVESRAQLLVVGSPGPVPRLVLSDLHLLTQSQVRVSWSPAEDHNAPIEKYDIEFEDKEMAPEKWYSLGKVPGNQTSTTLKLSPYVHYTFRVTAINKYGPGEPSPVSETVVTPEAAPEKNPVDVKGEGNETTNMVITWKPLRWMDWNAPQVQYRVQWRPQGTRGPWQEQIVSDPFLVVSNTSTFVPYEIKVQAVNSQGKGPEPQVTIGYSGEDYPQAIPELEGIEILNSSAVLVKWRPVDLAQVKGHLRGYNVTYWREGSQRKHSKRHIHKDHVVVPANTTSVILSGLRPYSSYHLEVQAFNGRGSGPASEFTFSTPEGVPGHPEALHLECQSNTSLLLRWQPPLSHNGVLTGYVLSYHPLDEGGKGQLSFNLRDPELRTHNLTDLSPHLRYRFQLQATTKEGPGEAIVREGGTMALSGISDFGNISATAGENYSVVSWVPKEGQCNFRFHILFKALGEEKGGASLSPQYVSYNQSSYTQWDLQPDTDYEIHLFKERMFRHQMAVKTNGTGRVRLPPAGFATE
T1 sequence (P11627 20-1260): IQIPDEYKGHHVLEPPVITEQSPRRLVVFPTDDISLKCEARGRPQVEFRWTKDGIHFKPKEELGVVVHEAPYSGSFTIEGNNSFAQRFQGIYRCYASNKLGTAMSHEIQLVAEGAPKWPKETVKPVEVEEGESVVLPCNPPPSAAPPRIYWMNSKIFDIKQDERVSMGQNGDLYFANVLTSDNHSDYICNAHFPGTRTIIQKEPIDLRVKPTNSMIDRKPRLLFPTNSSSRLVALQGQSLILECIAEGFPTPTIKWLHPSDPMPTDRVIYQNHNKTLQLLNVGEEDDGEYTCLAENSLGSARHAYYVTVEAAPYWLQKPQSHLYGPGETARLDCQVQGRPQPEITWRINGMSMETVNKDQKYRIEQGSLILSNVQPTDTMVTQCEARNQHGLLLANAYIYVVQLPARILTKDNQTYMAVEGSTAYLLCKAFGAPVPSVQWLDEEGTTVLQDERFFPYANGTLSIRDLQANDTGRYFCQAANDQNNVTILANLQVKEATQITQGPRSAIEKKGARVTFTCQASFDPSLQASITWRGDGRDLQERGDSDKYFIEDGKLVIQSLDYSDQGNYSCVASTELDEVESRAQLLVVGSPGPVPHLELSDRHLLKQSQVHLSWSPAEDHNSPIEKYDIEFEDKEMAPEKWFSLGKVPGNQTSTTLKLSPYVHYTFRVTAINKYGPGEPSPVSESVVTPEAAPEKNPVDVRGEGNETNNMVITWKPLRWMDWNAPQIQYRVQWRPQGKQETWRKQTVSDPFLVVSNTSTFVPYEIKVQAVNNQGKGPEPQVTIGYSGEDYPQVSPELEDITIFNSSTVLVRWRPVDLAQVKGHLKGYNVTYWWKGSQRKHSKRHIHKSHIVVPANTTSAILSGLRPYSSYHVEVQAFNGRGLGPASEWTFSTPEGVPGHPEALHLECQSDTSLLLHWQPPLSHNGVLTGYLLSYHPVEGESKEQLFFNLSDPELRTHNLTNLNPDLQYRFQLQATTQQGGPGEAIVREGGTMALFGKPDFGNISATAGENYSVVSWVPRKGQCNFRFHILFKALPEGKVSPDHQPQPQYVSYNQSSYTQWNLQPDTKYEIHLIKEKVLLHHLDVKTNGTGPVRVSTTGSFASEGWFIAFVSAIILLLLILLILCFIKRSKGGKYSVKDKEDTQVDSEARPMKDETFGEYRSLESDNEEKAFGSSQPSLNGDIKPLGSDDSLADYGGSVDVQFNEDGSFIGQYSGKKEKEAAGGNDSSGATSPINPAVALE

cross-reactivity with mouse L1CAM [1] | Molecule | affinity for L1CAM relative to the chimeric Fab (Fab 1) [2]
cross-reacted with mouse L1CAM | 14A10: anti-L1CAM mAb from AlivaMab mice (human variable regions, mouse IgG1 Fc); VH SEQ ID NO: 87, VL SEQ ID NO: 88 (antibody, V domains shown) VH: EVQMVESGGGLVQPGGSLRLSCAAPGFIFSSYNMNWVRQAPGKGLEWVSYISSSSSTTYYADSVKGRFTISRDNAKNSLYLQMNSLRDEDTAVYYCASLYSGYDYYYYYGMDVWGQGTTVTVSS VL: DIVMTQTPLSSPVSLGQPASISCRSSQSLVHSDGNTYLSWLQQRPGQPPRVLIYKISKRFSGVPDRFSGSGAGTDFTLKISRVEAEDVGVYYCMQATQFPFTFGPGTKVDIK | –
– | Fab 3: humanized 76H12 Fab variant, preferred; design in Table 86 (antibody, V domains shown) VH: QVQLVQSGAEVKKPGASVKVSCKASGYTFTSYWMHWVRQAPGQGLEWIGNVYPGSGSTKYAQKFQGRATLTVDTSTSTVYMELSSLRSEDTAVYYCARPGNYEGFAYWGQGTLVTVSS VL: DIQLTQSPSSLSASVGDRVTITCRASESVDSYGSSFMHWYQQKPGKPPKLLIYLASNLESGVPSRFSGSGSGTDFTLTISSLQPEDFATYYCQQNNEDPWTFGQGTKLEIK | equivalent or better affinity than the chimeric Fab
– | Fab 5: humanized 76H12 Fab variant; design in Table 86 (antibody, V domains shown) VH: QVQLVQSGAEVKKPGASVKVSCKASGYTFTSYWMHWVRQAPGQGLEWIGNVYPGSGSTKYAQKFQGRATLTVDTSTSTVYMELSSLRSEDTAVYYCARPGNYEGFAYWGQGTLVTVSS VL: NIQLTQSPSSLSASVGDRVTITCRASESVDSYGSSFMHWYQQKPGKPPKLLIYLASNLESGVPSRFSGSGSGTDFTLTISSLQPEDFATYYCQQNNEDPWTFGQGTKLEIK | equivalent or better affinity than the chimeric Fab
– | Fab 4: humanized 76H12 Fab variant; design in Table 86 (antibody, V domains shown) VH: QVQLVQSGAEVKKPGASVKVSCKASGYTFTSYWMHWVRQAPGQGLEWIGNVYPGSGSTKYAQKFQGRATLTVDTSTSTVYMELSSLRSEDTAVYYCARPGNYEGFAYWGQGTLVTVSS VL: DIQLTQSPSSLSASVGDRVTITCRASESVDSYGSSFMHWYQQKPGKPPKLLIYLASNLESGVPSRFSGSGSRTDFTLTISSLQPEDFATYYCQQNNEDPWTFGQGTKLEIK | equivalent or better affinity than the chimeric Fab
